Measurements reported in patent US20260347474 (published 2026).
Substitutions are numbered along the chain they refer to.

B1: P-1153 (antibody, V domains shown)
VH: QVQLVQSGVEVKKPGASVKVSCKASGYTFTNYYMYWVRQAPGQGLEWMGGINPSNGGTNYAQKFQGRVTLTTDSSTTTAYMELKSLQFDDTAVYYCARRDYRFDMGFDYWGQGTTVTVSS
VL: EIVLTQSPATLSLSPGERATLSCRASQGVSTSGYSYLAWYQQKPGQAPRLLIYLASYRASGVPARFSGSGSGTDFTLTISSLEPEDFAVYYCQHSRDLPLTFGGGTKVEIKR
B2: P-1151 (antibody, V domains shown)
VH: B1 VH
VL: B1 VL with A38H
B3: P-1148 (antibody, V domains shown)
VH: B1 VH with Y60F
VL: B1 VL with A38H
B4: P-1150 (antibody, V domains shown)
VH: B1 VH with Y60F
VL: B1 VL

Molecular target: human PD1-6His (human)
Experiment: ELISA

Chain of human PD1-6His (human) (chain, as listed by the source): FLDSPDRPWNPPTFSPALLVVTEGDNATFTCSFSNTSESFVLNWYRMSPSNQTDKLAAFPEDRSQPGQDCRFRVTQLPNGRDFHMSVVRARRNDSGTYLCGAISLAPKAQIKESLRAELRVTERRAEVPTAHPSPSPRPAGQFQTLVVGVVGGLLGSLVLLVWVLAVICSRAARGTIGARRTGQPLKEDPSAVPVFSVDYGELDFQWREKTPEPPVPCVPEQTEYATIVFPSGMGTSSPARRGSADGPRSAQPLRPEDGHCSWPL

Binder	EC50 [nM]
B1	0.11
B2	0.065
B3	0.093
B4	0.088
